From US20120040915A1 (MAYO FOUNDATION FOR MEDICAL EDUCATION AND RESEARCH, published 2012)
Ends that are not written are not given here. * marks the point of attachment. Biotin = O=C1N[C@H]2[C@H](CS[C@H]2CCCCC(=O)*)N1

Molecular target: T1, PDZ domain of GIPC/synectin displayed on T7 phage (UniProt O14908 133-213, limits assumed)
T1 construct: domain: PDZ domain; also called GIPC/Synectin-PDZ T7 phage; GIPC-PDZ
T1 sequence (looked up): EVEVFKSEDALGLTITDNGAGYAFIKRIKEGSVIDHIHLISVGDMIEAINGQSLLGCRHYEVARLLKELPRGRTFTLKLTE
Assay: phage ELISA, biotinylated peptide on Neutravidin plate, GIPC-PDZ T7 phage
Description: Neutravidin plates (Pierce) were coated in duplicate with 100 μL of 10 μg/mL solutions of N-terminal biotinylated peptides ([…] (SEQ ID NO: 3) (from GAIP), KKETEV (SEQ ID NO: 12) and KKETAV (SEQ ID NO: 13) (two sequences that bind PDZ3 of PSD-95 (21), and allowed to incubate 1-2 h at 37° C. (or overnight at 4° C.) with mild shaking. The unbound peptides were washed away three times with TBS (0.5% Tween-20)-TBST buffer. Blocking buffer was prepared by diluting BSA […] in TBS stock two-fold in dH2O (for a 5% BSA final concentration) and free biotin (1 mM). Alternatively, SuperBlock in PBS buffer (Pierce) with free biotin (1 mM) was used. The blocking buffer was added to each well and allowed to incubate 30-60 min at 37° C. with mild shaking. The blocking buffer was washed away with TBST by inverting the plate and tapping off the excess with each of the 4-5 washes. The GIPC/Synectin-PDZ T7 phage to be screened with the biotinylated peptides were prepared by adding phage stock (1 mL, 20 μL) derived from one of the eight plaques (discussed above) to freshly harvested BLT5403 E. coli at OD ˜1. Once lysis was observed, the cell debris was spun down and phage lysate was used in a plaque assay (as discussed above) to determine the titer (phage titer added to wells 5×10⁹ pfu). […] The substrate was added to each well, and the development was measured at 405 nm after 30 min, 1 h and 2 h.

Biotin-KKETEV (Comparison peptide in the phage ELISA) [N-terminal biotinylated peptide KKETEV (SEQ ID NO: 12)]
binding result: no binding

Biotin-KKETAV (Comparison peptide in the phage ELISA) [N-terminal biotinylated peptide KKETAV (SEQ ID NO: 13)]
binding result: no binding
